Changes are numbered by the printed parent chain. Names and notes keep the numbering of the source.
T1: RAD54L WT (human, UniProt Q92698 1-747)
T1 sequence (looked up): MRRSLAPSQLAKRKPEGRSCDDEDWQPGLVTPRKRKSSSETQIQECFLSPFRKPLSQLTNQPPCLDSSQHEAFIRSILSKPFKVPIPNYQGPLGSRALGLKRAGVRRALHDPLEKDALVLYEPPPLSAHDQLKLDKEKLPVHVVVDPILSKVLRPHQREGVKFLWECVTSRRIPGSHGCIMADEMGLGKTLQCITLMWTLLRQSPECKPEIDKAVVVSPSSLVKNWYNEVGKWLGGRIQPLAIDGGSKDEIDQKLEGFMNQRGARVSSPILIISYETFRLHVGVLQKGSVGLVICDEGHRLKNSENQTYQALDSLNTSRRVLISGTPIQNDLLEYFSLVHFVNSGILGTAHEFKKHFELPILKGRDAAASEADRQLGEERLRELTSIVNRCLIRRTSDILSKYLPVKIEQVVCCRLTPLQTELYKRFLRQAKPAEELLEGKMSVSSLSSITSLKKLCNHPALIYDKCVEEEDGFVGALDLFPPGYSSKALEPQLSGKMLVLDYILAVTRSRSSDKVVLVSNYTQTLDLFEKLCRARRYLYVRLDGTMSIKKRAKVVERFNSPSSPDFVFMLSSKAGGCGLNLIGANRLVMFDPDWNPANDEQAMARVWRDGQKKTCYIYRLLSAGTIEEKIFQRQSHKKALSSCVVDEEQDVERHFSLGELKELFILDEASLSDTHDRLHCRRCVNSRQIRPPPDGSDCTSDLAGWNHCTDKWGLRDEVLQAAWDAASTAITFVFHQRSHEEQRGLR

T2: XRCC3 WT (human, UniProt O43542 1-346)
T2 sequence (looked up): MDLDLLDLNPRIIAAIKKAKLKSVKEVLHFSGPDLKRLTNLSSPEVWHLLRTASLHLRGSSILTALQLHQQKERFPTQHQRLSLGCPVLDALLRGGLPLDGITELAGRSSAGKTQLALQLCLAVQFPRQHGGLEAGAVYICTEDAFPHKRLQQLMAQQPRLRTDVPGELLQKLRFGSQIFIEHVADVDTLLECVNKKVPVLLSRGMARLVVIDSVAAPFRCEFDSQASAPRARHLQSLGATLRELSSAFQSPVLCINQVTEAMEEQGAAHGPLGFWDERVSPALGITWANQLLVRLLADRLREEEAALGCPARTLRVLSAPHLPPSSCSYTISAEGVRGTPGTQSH

B1: RAD51 WT (natural protein, human, UniProt Q06609 1-339, looked up)
chain: MAMQMQLEANADTSVEEESFGPQPISRLEQCGINANDVKKLEEAGFHTVEAVAYAPKKELINIKGISEAKADKILAEAAKLVPMGFTTATEFHQRRSEIIQITTGSKELDKLLQGGIETGSITEMFGEFRTGKTQICHTLAVTCQLPIDRGGGEGKAMYIDTEGTFRPERLLAVAERYGLSGSDVLDNVAYARAFNTDHQTQLLYQASAMMVESRYALLIVDSATALYRTDYSGRGELSARQMHLARFLRMLLRLADEFGVAVVITNQVVAQVDGAAMFAADPKKPIGGNIIAHASTTRLYLRKGRGETRICKIYDSPCLPEAEAMFAINADGVGDAKD
B2: RAD51 A79D (natural protein, human, UniProt Q06609 1-339, looked up)
chain: B1 chain with A79D
B3: RAD51 A55V (natural protein, human, UniProt Q06609 1-339, looked up)
chain: B1 chain with A55V

How the values were obtained:
Assay in all cases: two-hybrid
[1] = target: B3
[2] = target: B2
[3] = target: T1, RAD54L WT
[4] = target: T2, XRCC3 WT
[5] = target: B1

Y2H % of WT [1] | Y2H % of WT [2] | Y2H % of WT [3] | Y2H % of WT [4] | Y2H % of WT [5] | Binder
90.8 % of WT | 109 % of WT |  |  |  | B1
 |  | 90.6 % of WT | 21.5 % of WT | 95.1 % of WT | B2
 |  | 112 % of WT | 97.8 % of WT | 135 % of WT | B3

Source: PMC5834346 (Familial cancer, 2018)
